Patent US20050054833A1 (published 2005)

Key:
human CD23 [1] = biological target: T1, human CD23 (human, UniProt P06734 1-321); assay: apparent Kd
T1 chain: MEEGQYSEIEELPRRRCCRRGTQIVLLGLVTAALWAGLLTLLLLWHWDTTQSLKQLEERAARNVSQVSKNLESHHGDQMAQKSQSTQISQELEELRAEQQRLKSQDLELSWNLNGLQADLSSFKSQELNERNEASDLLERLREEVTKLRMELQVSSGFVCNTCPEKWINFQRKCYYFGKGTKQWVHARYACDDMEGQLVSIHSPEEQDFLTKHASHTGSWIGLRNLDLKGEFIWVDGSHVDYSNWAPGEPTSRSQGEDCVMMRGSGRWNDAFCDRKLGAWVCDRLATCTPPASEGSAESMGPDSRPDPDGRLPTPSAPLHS

human CD23 [2] = biological target: T1, human CD23; assay: apparent Kd; replicate 3
human CD23 [3] = biological target: T1, human CD23; assay: apparent Kd; replicate 4
human CD23 [4] = biological target: T1, human CD23; assay: apparent Kd; replicate 2
human CD23 [5] = biological target: T1, human CD23; assay: apparent Kd; replicate 1
p5E8G1 = assay: apparent Kd
p5E8G1N- = assay: apparent Kd

B1: PRIMATIZED antibody p5E8G4PN- (antibody, V domains shown)
VH: EVQLVESGGGLAKPGGSLRLSCAASGFRFTFNNYYMDWVRQAPGQGLEWVSRISSSGDPTWYADSVKGRFTISRENAKNTLFLQMNSLRAEDTAVYYCASLTTGSDSWGQGVLVTVSS
VL: DIQMTQSPSSLSASVGDRVTITCRASQDIRYYLNWYQQKPGKAPKLLIYVASSLQSGVPSRFSGSGSGTEFTLTVSSLQPEDFATYYCLQVYSTPRTFGQGTKVEIK
Kd (human CD23 [1]): 0.3 nM

B2: primate anti-human CD23 monoclonal antibody 5E8 (antibody, V domains shown)
VH: EVQLVESGGGLAKPGGSLRLSCAASGFRFTFNNYYMDWVRQAPGQGLEWVSRISSSGDPTWYADSVKGRFTISRENANNTLFLQMNSLRAEDTAVYYCASLTTGSDSWGQGVLVTVSS
VL: DIQMTQSPSSLSASVGDRVTITCRASQDIRYYLNWYQQKPGKAPKLLIYVASSLQSGVPSRFSGSGSGTEFTLTVSSLQPEDFATYYCLQVYSTPRTFGQGTKVEIK
modifications: N-linked oligosaccharide at the asparagine of the heavy chain variable region glycosylation site (Kabat 75)
Kd (human CD23 [2]): 1.8 nM
Kd (human CD23 [3]): 4.4 nM
Kd (human CD23 [4]): 1.5 nM
Kd (human CD23 [5]): 0.5 nM

B3: PRIMATIZED antibody p5E8G4P (antibody, V domains shown)
VH: EVQLVESGGGLAKPGGSLRLSCAASGFRFTFNNYYMDWVRQAPGQGLEWVSRISSSGDPTWYADSVKGRFTISRENANNTLFLQMNSLRAEDTAVYYCASLTTGSDSWGQGVLVTVSS
VL: DIQMTQSPSSLSASVGDRVTITCRASQDIRYYLNWYQQKPGKAPKLLIYVASSLQSGVPSRFSGSGSGTEFTLTVSSLQPEDFATYYCLQVYSTPRTFGQGTKVEIK
modifications: N-linked oligosaccharide at the asparagine of the heavy chain variable region glycosylation site (Kabat 75)
Kd (human CD23 [4]): 1 nM
Kd (human CD23 [5]): 0.3 nM

B4: CD23 (receptor)
chain: MEEGQYSEIEELPRRRCCRRGTQIVLLGLVTAALWAGLLTLLLLWHWDTTQSLKQLEERAARNVSQVSKNLESHHGDQMAQKSQSTQISQELEELRAEQQRLKSQDLELSWNLNGLQADLSSFKSQELNERNEASDLLERLREEVTKLRMELQVSSGFVCNTCPEKWINFQRKCYYFGKGTKQWVHARYACDDMEGQLVSIHSPEEQDFLTKHASHTGSWIGLRNLDLKGEFIWVDGSHVDYSNWAPGEPTSRSQGEDCVMMRGSGRWNDAFCDRKLGAWVCDRLATCTPPASEGSAESMGPDSRPDPDGRLPTPSAPLHS
Kd (p5E8G1): 0.7 nM
Kd (p5E8G1N-): 0.7 nM
